Measurements taken from publication PMC3809846 (International journal of cancer. Journal international du …, 2012).
Residue numbers refer to the chain shown, from its start. No end group written: not given here.

T1: biotinylated podoplanin peptide (hpp38-51) (Homo sapiens, UniProt Q86YL7, also: biotin, position not given here)
T1 chain: EGGVAMPGAEDDVV

B1: NZ-1 monoclonal antibody (antibody, V domains shown)
VH: EVQLVESGGGLVQPGRSLKLSCAASGFTFSNYGMAWVRQTPTKGLEWIASISAGGDKTYYGDSVKGRFSISRDNAKTTHYLQMDSLRSEDTATYYCAKTSRVYFDYWGQGVMVTVSS
VL: QFVLTQPNSVSTNLGSTVKLSCKRSTGNIGSNYVNWYQQHEGRSPTTMIYRDDKRPDGVPDRFSGSIDRSSNSALLTINNVQTEDEADYFCHSYSSGIVFGGGTKLTVL
B2: NZ-1-(scdsFv) (scFv, V domains shown)
VH: B1 VH with G44C
VL: B1 VL with G103C

Tests used:
[1] = target: podoplanin expressed on brain tumor cells (Homo sapiens, UniProt Q86YL7); experiment: flow cytometry on cells
Chain of podoplanin expressed on brain tumor cells (Q86YL7 23-162): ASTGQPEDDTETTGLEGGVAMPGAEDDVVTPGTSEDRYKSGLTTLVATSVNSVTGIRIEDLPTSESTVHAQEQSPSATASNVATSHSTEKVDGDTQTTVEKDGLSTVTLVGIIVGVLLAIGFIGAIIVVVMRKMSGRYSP

[2] = target: T1, biotinylated podoplanin peptide …; experiment: SPR

| Binder | binding result [1] | Ka [2] |
| --- | --- | --- |
| B1 | binds |  |
| B2 |  | 4.8e+07 M⁻¹ |
